In patent US20150232560A1 (Hoffmann-La Roche, published 2015):
Values joined by “and” are separate entries in the source; they are usually repeats but may differ in a detail not shown here. Equal values may be shown once. Values belong to the binder of their own block, whether it stands above or below them.

What was measured:
[1] = molecular target: T1, IGF-1R(1340-1366)[1346-pTyr]amid (phosphotyrosine at 1346; C-terminal amide); assay: SPR (BIAcore 3000), ss-FABs hybridized on biotinylated T40-Bi linker on SA chip, peptide in solution; T40-Bi linker (linker 10)
T1 construct: Used as the analyte free in solution; also called pIGF-1R peptide (free in solution); phosphorylated IGF-1R peptide
T1 peptide: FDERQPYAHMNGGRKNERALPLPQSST

[2] = molecular target: T1, IGF-1R(1340-1366)[1346-pTyr]amid; assay: SPR (BIAcore 3000, SA sensor, 25 C): ss-FABs hybridized on the surface-captured biotinylated T40-Bi ss-DNA linker; peptide as analyte in solution
Excerpt: (§1) FIG. 17 Schematic drawing of the BIAcore assay, presenting the complex s on the sensor surface. On Flow Cell 1 (=FC1) (not shown) amino-PEO-biotin was captured. On FC2, FC3 and FC4 bivalent binding agents with increasing linker length were immobilized. Analyte 1: IGF-1R-peptide containing the M-1.4.168 ss-FAB epitope (thin line)-the M-8.1.2 ss-FAB phospho-epitope is not present, because this peptide is not phosphorylated; analyte 2: pIGF-1R peptide containing the M-8.1.2 ss-FAB phospho-epitope (P) and the M-1.4.168 ss-FAB epitope (thin line). Analyte 3: pINR peptide, containing the cross reacting M-8.1.2 ss-FAB phospho-epitope, but not the epitope for M-1.4.168.
(§2) The dissociation was monitored at 50 μl/min for 5.3 min. The system was regenerated after each concentration step with a 12 sec pulse of 250 mM NaOH and was reloaded with ss-FAB ligand.

[3] = molecular target: T2, IGF-1R(1340-1366)amid (C-terminal amide); assay: as above
T2 construct: Used as the analyte free in solution; also called IGF-1R peptide (free in solution); non-phosphorylated IGF-1R peptide
T2 peptide: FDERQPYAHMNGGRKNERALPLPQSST
Excerpt: as §1, §2

[4] = molecular target: T3, INR(1355-1382)[1361-pTyr]amid (human, phosphotyrosine at 1361; C-terminal amide); assay: SPR (BIAcore 3000, SA sensor, 25 C): single ss-FAB hybridized on the surface-captured biotinylated T40-Bi ss-DNA linker; peptide as analyte in solution
T3 construct: Used as the analyte free in solution; also called pINR peptide; phosphorylated insulin receptor peptide (free in solution)
T3 peptide: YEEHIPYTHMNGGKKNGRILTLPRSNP

[5] = molecular target: T1, IGF-1R(1340-1366)[1346-pTyr]amid; assay: SPR (BIAcore 3000), ss-FABs hybridized on biotinylated T0 linker on SA chip, peptide in solution; T0 linker (no spacer; linker 16 as printed)
[6] = molecular target: T1, IGF-1R(1340-1366)[1346-pTyr]amid; assay: SPR (BIAcore 3000, SA sensor, 25 C): ss-FABs hybridized on the surface-captured biotinylated T0-Bi ss-DNA linker; peptide as analyte in solution
[7] = molecular target: T2, IGF-1R(1340-1366)amid; assay: as above

Kd [1]: 0.01 nM | Kd [2]: 0.0125 nM | Kd [3]: 0.973 nM and 1 nM | t1/2 diss [3]: 4.3 min
B1: T40 dual binding agent: ss-FAB 8.1.2 and ss-FAB 1.4.168 on the biotinylated T40-Bi 77-mer ss-DNA-Linker (linker 10) (bispecific antibody, V domains shown)
VH 1: QCDVKLVESGGGLVKPGGSLKLSCAASGFTFSDYPMSWVRQTPEKRLEWVATITTGGTYTYYPDSIKGRFTISRDNAKNTLYLQMGSLQSEDAAMYYCTRVKTDLWWGLAYWGQGTLVTVSA
VL 1: QLVLTQSSSASFSLGASAKLTCTLSSQHSTYTIEWYQQQPLKPPKYVMELKKDGSHTTGDGIPDRFSGSSSGADRYLSISNIQPEDESIYICGVGDTIKEQFVYVFGGGTKVTVLG
VH 2: EVQLQQSGPALVKPGASVKMSCKASGFTFTSYVIHWVKQKPGQGLEWIGYLNPYNDNTKYNEKFKGKATLTSDRSSSTVYMEFSSLTSEDSAVYFCARRGIYAYDHYFDYWGQGTSLTVSS
VL 2: QIVLTQSPAIMSASPGEKVTLTCSASSSVNYMYWYQQKPGSSPRLLIYDTSNLASGVPVRFSGSGSVTSYSLTISRMEAEDAATYYCQQWSTYPLTFGAGTKLELK
modifications: ss-DNA on a hinge cysteine
notes: Assembled on the SA chip on the biotinylated linker T20-(Biotin-dT)-T20; also called T40-bi complex

binding result [4]: no binding
B2: ss-FAB' 1.4.168 (Fab, V domains shown)
VH: DVKLVESGGGLVKPGGSLKLSCAASGFTFSDYPMSWVRQTPEKRLEWVATITTGGTYTYYPDSIKGRFTISRDNAKNTLYLQMGSLQSEDAAMYYCTRVKTDLWWGLAYWGQGTLVTVSA
VL: QLVLTQSSSASFSLGASAKLTCTLSSQHSTYTIEWYQQQPLKPPKYVMELKKDGSHTTGDGIPDRFSGSSSGADRYLSISNIQPEDESIYICGVGDTIKEQFVYVFGGGTKVTVLG
modifications: 17mer ss-DNA comprising SEQ ID NO: 05 with fluorescein, coupled via maleimide to a cysteine of the FAB' hinge region
notes: FAB' made from the murine monoclonal antibody M-1.4.168 by pepsin cleavage and cysteamine reduction; the constant parts are not; also called ss-FAB 1.004.168; fluorescein-ss-FAB' 1.4.168

Kd [5]: 0.03 nM | Kd [6]: 0.0344 nM | Kd [7]: 1.2 nM and 1 nM | t1/2 diss [7]: 5 min
B3: T0 dual binding agent: ss-FAB 8.1.2 and ss-FAB 1.4.168 on the biotinylated T0-Bi 37-mer ss-DNA-Linker (linker 17) (bispecific antibody, V domains shown)
VH 1: QCDVKLVESGGGLVKPGGSLKLSCAASGFTFSDYPMSWVRQTPEKRLEWVATITTGGTYTYYPDSIKGRFTISRDNAKNTLYLQMGSLQSEDAAMYYCTRVKTDLWWGLAYWGQGTLVTVSA
VL 1: QLVLTQSSSASFSLGASAKLTCTLSSQHSTYTIEWYQQQPLKPPKYVMELKKDGSHTTGDGIPDRFSGSSSGADRYLSISNIQPEDESIYICGVGDTIKEQFVYVFGGGTKVTVLG
VH 2: EVQLQQSGPALVKPGASVKMSCKASGFTFTSYVIHWVKQKPGQGLEWIGYLNPYNDNTKYNEKFKGKATLTSDRSSSTVYMEFSSLTSEDSAVYFCARRGIYAYDHYFDYWGQGTSLTVSS
VL 2: QIVLTQSPAIMSASPGEKVTLTCSASSSVNYMYWYQQKPGSSPRLLIYDTSNLASGVPVRFSGSGSVTSYSLTISRMEAEDAATYYCQQWSTYPLTFGAGTKLELK
modifications: ss-DNA on a hinge cysteine
notes: The protein parts are the same in both cases
